Results published in the supplement of paper PMC9112550, “Optimization of the antimicrobial peptide Bac7 by deep mutational scanning” (BMC Biology, 2022).

Test system: Escherichia coli TOP10
Assay: shrunken log2 fold change of peptide-encoding DNA abundance (4.5 h post-induction vs induction); higher = less antimicrobial activity (less host growth inhibition)
Settings: time post-induction: 4.5 h; library: site-saturation at positions 5, 18, 19, 20
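Further: peptides expressed intracellularly from a pBAD plasmid library in pooled LB shake-flask culture, induced with 0.3% L-arabinose, DNA abundance read by NGS, three biological replicates, DESeq2 with apeglm shrinkage.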

Row | Sequence | shrunken log2 fold change
1 | RRIRKRPPRLPRPRPRPAGHPRP | 0.0606
2 | RRIRHRPPRLPRPRPRPLIDPRP | -0.408
3 | RRIRGRPPRLPRPRPRPPDCPRP | 1.28
4 | RRIRNRPPRLPRPRPRPRGYPRP | -0.846
5 | RRIRPRPPRLPRPRPRPDMDPRP | -0.21
6 | RRIRCRPPRLPRPRPRPDHLPRP | -0.0314
7 | RRIRHRPPRLPRPRPRPFWWPRP | 0.0369
8 | RRIRTRPPRLPRPRPRPLWNPRP | -0.44
9 | RRIRARPPRLPRPRPRPGWAPRP | 0.72
10 | RRIRRRPPRLPRPRPRPYPCPRP | 0.253
11 | RRIRNRPPRLPRPRPRPSNRPRP | -0.138
12 | RRIRIRPPRLPRPRPRPQWFPRP | -0.0117
13 | RRIRKRPPRLPRPRPRPELTPRP | 2.29
14 | RRIRMRPPRLPRPRPRPNQYPRP | -0.218
15 | RRIRFRPPRLPRPRPRPQAPPRP | 0.0778
16 | RRIRARPPRLPRPRPRPICGPRP | 0.248
17 | RRIRIRPPRLPRPRPRPWYWPRP | -1.38
18 | RRIRTRPPRLPRPRPRPKGKPRP | 0.34
19 | RRIRARPPRLPRPRPRPGHEPRP | 0.054
20 | RRIRGRPPRLPRPRPRPKIYPRP | 0.000217
21 | RRIRPRPPRLPRPRPRPFEPPRP | 0.232
22 | RRIRERPPRLPRPRPRPLNQPRP | -0.547
23 | RRIRTRPPRLPRPRPRPMIQPRP | -0.146
24 | RRIRIRPPRLPRPRPRPPRTPRP | 0.195
25 | RRIRYRPPRLPRPRPRPMVMPRP | -0.0337

Row | Sequence | shrunken log2 fold change
26 | RRIRSRPPRLPRPRPRPHSSPRP | 0.171
27 | RRIRWRPPRLPRPRPRPKATPRP | 0.264
28 | RRIRARPPRLPRPRPRPDECPRP | -0.0409
29 | RRIRLRPPRLPRPRPRPVLTPRP | -0.198
30 | RRIRQRPPRLPRPRPRPIILPRP | -0.516
31 | RRIRKRPPRLPRPRPRPNHNPRP | -0.382
32 | RRIRTRPPRLPRPRPRPMANPRP | -0.102
33 | RRIRERPPRLPRPRPRPSWNPRP | -0.701
34 | RRIRKRPPRLPRPRPRPSWPPRP | 0.321
35 | RRIRFRPPRLPRPRPRPAQAPRP | 0.29
36 | RRIRNRPPRLPRPRPRPAVEPRP | -0.0887
37 | RRIRYRPPRLPRPRPRPGIDPRP | -0.16
38 | RRIRLRPPRLPRPRPRPCWRPRP | 0.0285
39 | RRIRHRPPRLPRPRPRPGYKPRP | -0.00663
40 | RRIRRRPPRLPRPRPRPWLSPRP | 0.0437
41 | RRIRERPPRLPRPRPRPLFSPRP | -0.364
42 | RRIRRRPPRLPRPRPRPYTKPRP | -0.284
43 | RRIRRRPPRLPRPRPRPCAGPRP | 0.357
44 | RRIRYRPPRLPRPRPRPFGYPRP | -1.39
45 | RRIRMRPPRLPRPRPRPANVPRP | -0.0273
46 | RRIRMRPPRLPRPRPRPAICPRP | 0.171
47 | RRIRERPPRLPRPRPRPTTTPRP | -0.0224
48 | RRIRKRPPRLPRPRPRPGVSPRP | 0.497
49 | RRIRFRPPRLPRPRPRPQQFPRP | 0.0682
50 | RRIRYRPPRLPRPRPRPCLIPRP | -0.00819

Row | Sequence | shrunken log2 fold change
51 | RRIRDRPPRLPRPRPRPMWNPRP | 0.108
52 | RRIRYRPPRLPRPRPRPLWIPRP | -0.103
53 | RRIRGRPPRLPRPRPRPPSCPRP | 0.654
54 | RRIRPRPPRLPRPRPRPDIPPRP | -0.219
55 | RRIRWRPPRLPRPRPRPFRWPRP | 0.0815
56 | RRIRRRPPRLPRPRPRPHSVPRP | 0.0319
57 | RRIRHRPPRLPRPRPRPPFSPRP | -0.166
58 | RRIRPRPPRLPRPRPRPYQKPRP | 0.0104
59 | RRIRGRPPRLPRPRPRPKRMPRP | 0.675
60 | RRIRDRPPRLPRPRPRPINFPRP | -0.0167
61 | RRIRYRPPRLPRPRPRPCLNPRP | -0.216
62 | RRIRERPPRLPRPRPRPPQDPRP | 0.113
63 | RRIRDRPPRLPRPRPRPVSKPRP | 0.0275
64 | RRIRMRPPRLPRPRPRPICCPRP | -0.00414
65 | RRIRLRPPRLPRPRPRPVVIPRP | -0.0403
66 | RRIRTRPPRLPRPRPRPVRTPRP | 0.149
67 | RRIRQRPPRLPRPRPRPYFTPRP | -0.818
68 | RRIRKRPPRLPRPRPRPVSQPRP | 0.147
69 | RRIRLRPPRLPRPRPRPCMLPRP | -0.398
70 | RRIRCRPPRLPRPRPRPEALPRP | 0.0749
71 | RRIRVRPPRLPRPRPRPGMFPRP | -0.132
72 | RRIRSRPPRLPRPRPRPYQWPRP | 0.0794
73 | RRIRARPPRLPRPRPRPPGAPRP | 1.11
74 | RRIRTRPPRLPRPRPRPTQIPRP | 0.0112
75 | RRIRFRPPRLPRPRPRPDCDPRP | -0.147

Row | Sequence | shrunken log2 fold change
76 | RRIRQRPPRLPRPRPRPMCQPRP | -0.053
77 | RRIRFRPPRLPRPRPRPDNIPRP | -0.269
78 | RRIRNRPPRLPRPRPRPKRGPRP | 0.00668
79 | RRIRARPPRLPRPRPRPTIDPRP | 0.301
80 | RRIRTRPPRLPRPRPRPMLRPRP | 0.0141
81 | RRIRERPPRLPRPRPRPWGPPRP | -0.0024
82 | RRIRGRPPRLPRPRPRPLYWPRP | -0.169
83 | RRIRRRPPRLPRPRPRPDMKPRP | -0.124
84 | RRIRARPPRLPRPRPRPSVPPRP | -0.179
85 | RRIRDRPPRLPRPRPRPLDIPRP | 0.0227
86 | RRIRDRPPRLPRPRPRPTLMPRP | 0.114
87 | RRIRKRPPRLPRPRPRPPTMPRP | 0.412
88 | RRIRVRPPRLPRPRPRPMFSPRP | -0.284
89 | RRIRGRPPRLPRPRPRPNQCPRP | 0.0163
90 | RRIRERPPRLPRPRPRPSFQPRP | -0.0708
91 | RRIRFRPPRLPRPRPRPMMHPRP | -0.181
92 | RRIRMRPPRLPRPRPRPFTDPRP | 0.174
93 | RRIRDRPPRLPRPRPRPKHTPRP | 0.136
94 | RRIRQRPPRLPRPRPRPRARPRP | 0.579
95 | RRIRDRPPRLPRPRPRPKIAPRP | -0.0493
96 | RRIRPRPPRLPRPRPRPKRVPRP | 0.0499
97 | RRIRMRPPRLPRPRPRPSNPPRP | 0.155
98 | RRIRQRPPRLPRPRPRPGTVPRP | -0.00591
99 | RRIRKRPPRLPRPRPRPNIYPRP | -0.275
100 | RRIRTRPPRLPRPRPRPWPVPRP | -0.105

Row | Sequence | shrunken log2 fold change
101 | RRIRYRPPRLPRPRPRPYAEPRP | -0.193
102 | RRIRIRPPRLPRPRPRPRFLPRP | -0.216
103 | RRIRARPPRLPRPRPRPVKAPRP | 0.0269
104 | RRIRRRPPRLPRPRPRPFHVPRP | -0.00804
105 | RRIRVRPPRLPRPRPRPNRFPRP | 0.11
106 | RRIRRRPPRLPRPRPRPPWNPRP | 0.474
107 | RRIRDRPPRLPRPRPRPPDNPRP | -0.272
108 | RRIRMRPPRLPRPRPRPQLPPRP | -0.105
109 | RRIRPRPPRLPRPRPRPCMLPRP | -0.663
110 | RRIRQRPPRLPRPRPRPVNEPRP | -0.325
111 | RRIRDRPPRLPRPRPRPECLPRP | 0.0572
112 | RRIRPRPPRLPRPRPRPHTLPRP | -0.195
113 | RRIRSRPPRLPRPRPRPHNWPRP | -0.248
114 | RRIRSRPPRLPRPRPRPYPPPRP | -0.377
115 | RRIRNRPPRLPRPRPRPDSLPRP | 0.0321
116 | RRIRARPPRLPRPRPRPIFTPRP | 0.165
117 | RRIRNRPPRLPRPRPRPWESPRP | 0.291
118 | RRIRHRPPRLPRPRPRPEEEPRP | -0.0106
119 | RRIRWRPPRLPRPRPRPPANPRP | 0.629
120 | RRIRFRPPRLPRPRPRPAYWPRP | 0.21
121 | RRIRHRPPRLPRPRPRPPIIPRP | -0.183
122 | RRIRKRPPRLPRPRPRPYHWPRP | -0.164
123 | RRIRKRPPRLPRPRPRPADEPRP | 0.19
124 | RRIRLRPPRLPRPRPRPSGMPRP | -0.204
125 | RRIRIRPPRLPRPRPRPWQMPRP | 0.0562

Row | Sequence | shrunken log2 fold change
126 | RRIRIRPPRLPRPRPRPKWPPRP | 0.0341
127 | RRIRQRPPRLPRPRPRPMPKPRP | 0.128
128 | RRIRRRPPRLPRPRPRPHDKPRP | 0.302
129 | RRIRPRPPRLPRPRPRPGRPPRP | 0.155
130 | RRIRDRPPRLPRPRPRPWAVPRP | -0.066
131 | RRIRRRPPRLPRPRPRPEFHPRP | 0.0566
132 | RRIRGRPPRLPRPRPRPSPTPRP | 0.828
133 | RRIRPRPPRLPRPRPRPWFFPRP | -0.185
134 | RRIRTRPPRLPRPRPRPASWPRP | 0.733
135 | RRIRPRPPRLPRPRPRPQRWPRP | 0.156
136 | RRIRWRPPRLPRPRPRPNPRPRP | 0.452
137 | RRIRNRPPRLPRPRPRPWSDPRP | -0.0436
138 | RRIRERPPRLPRPRPRPRIHPRP | -0.737
139 | RRIRPRPPRLPRPRPRPITEPRP | -0.0543
140 | RRIRCRPPRLPRPRPRPTCYPRP | -0.154
141 | RRIRNRPPRLPRPRPRPCHLPRP | -0.146
142 | RRIRYRPPRLPRPRPRPKPVPRP | 0.218
143 | RRIRCRPPRLPRPRPRPMMRPRP | 0.0843
144 | RRIRYRPPRLPRPRPRPSERPRP | -0.417
145 | RRIRWRPPRLPRPRPRPIGWPRP | 0.534
146 | RRIRDRPPRLPRPRPRPAQNPRP | 0.308
147 | RRIRYRPPRLPRPRPRPFMTPRP | -2.5
148 | RRIRPRPPRLPRPRPRPIRLPRP | 0.0338
149 | RRIRCRPPRLPRPRPRPNYLPRP | -0.797
150 | RRIRKRPPRLPRPRPRPGWNPRP | 0.106
